We go through four molecules from patent US20070014790A1 (JAPAN SCIENCE AND TECHOLOGY AGENCY, published 2007).

The assay concerns the target T1, GAL4 DBD alone (pDBD) (yeast, UniProt P04386 1-147).
T1 construct: Control bait
Briefly: yeast two-hybrid, β-galactosidase activity.

T1 sequence (P04386 1-147 limits assumed): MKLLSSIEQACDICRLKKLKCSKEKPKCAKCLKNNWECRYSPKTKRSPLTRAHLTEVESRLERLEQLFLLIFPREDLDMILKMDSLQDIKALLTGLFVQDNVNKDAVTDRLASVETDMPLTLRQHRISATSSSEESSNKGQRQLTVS

B1: GAL4 AD-ZHX3 fusion pAD-ZHX3 (303-364) (other, not shown: large carriers)
chain: LSSIPTYNAAMDSNSFLKNSFHKFPYPTKAELCYLTVVTKYPEEQLKIWFTAQRLKQGISWS
notes: It is the HD1 region
In the case of B1, the binding result is recorded as “no binding”.

B2: GAL4 AD alone (pACT2) (other, yeast, UniProt P04386 768-881, looked up)
chain: ANFNQSGNIADSSLSFTFTNSSNGPNLITTQTNSQALSQPIASSNVHDNFMNNEITASKIDDGNNSKPLSPGWTDQTAYNAFGITTGMFNTTTMDDVYNYLFDDEDTPPNPKKE
notes: domain: AD; Control prey
B2: the binding result is listed as “no binding”.

B3: GAL4 AD-ZHX1 fusion pAD-ZHX1 (430-564) (other, human, UniProt Q9UKY1 430-564, looked up, not shown: large carriers)
chain: QVPAAQPTAETKPATAAVPTSQSVKHETALVNPDSFGIRAKKTKEQLAELKVSYLKNQFPHDSEIIRLMKITGLTKGEIKKWFSDTRYNQRNSKSNQCLHLNNDSSTTIIIDSSDETTESPTVGTAQPKQSWNPF
notes: range 430-564
For B3, the binding result is “no binding”.

B4: GAL4 AD-ZHX1 fusion pAD-ZHX1 (345-463) (other, human, UniProt Q9UKY1 345-463, looked up, not shown: large carriers)
chain: PEEVEEARRKQFNGTVHTVPQTITVIPTHISTGSNGLPSILQTCQIVGQPGLVLTQVAGTNTLPVTAPIALTVAGVPSQNNIQKSQVPAAQPTAETKPATAAVPTSQSVKHETALVNPD
notes: range 345-463
For B4, the binding result is reported as “no binding”.
